Columns and labels:
[1] = molecular target: the molecule itself; assay: SEC
[2] = molecular target: T1, Cif full-length (cycle inhibiting factor) (Escherichia coli (EPEC and EHEC)), P0DUW5; assay: SEC; details: remark: other sources report otherwise
T1 chain: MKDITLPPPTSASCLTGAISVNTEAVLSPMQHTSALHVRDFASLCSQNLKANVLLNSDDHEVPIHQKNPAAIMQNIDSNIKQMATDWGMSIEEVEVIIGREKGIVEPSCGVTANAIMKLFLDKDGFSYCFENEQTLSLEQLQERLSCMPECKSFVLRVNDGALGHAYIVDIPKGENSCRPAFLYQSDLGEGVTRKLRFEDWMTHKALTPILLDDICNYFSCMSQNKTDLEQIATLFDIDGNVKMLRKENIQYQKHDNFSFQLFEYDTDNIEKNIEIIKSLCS

Binder	stoichiometry N [1]	stoichiometry N [2]
Cif(100-282)-His, cycle inhibiting factor residues 100-282 with C-terminal His6 tag (the crystallized construct) (domain or fragment) REKGIVEPSCGVTANAIMKLFLDKDGFSYCFENEQTLSLEQLQERLSCMPECKSFVLRVNDGALGHAYIVDIPKGENSCRPAFLYQSDLGEGVTRKLRFEDWMTHKALTPILLDDICNYFSCMSQNKTDLEQIATLFDIDGNVKMLRKENIQYQKHDNFSFQLFEYDTDNIEKNIEIIKSLCS	2	–
Cif full-length (cycle inhibiting factor), P0DUW5 1-282 (natural protein) MKDITLPPPTSASCLTGAISVNTEAVLSPMQHTSALHVRDFASLCSQNLKANVLLNSDDHEVPIHQKNPAAIMQNIDSNIKQMATDWGMSIEEVEVIIGREKGIVEPSCGVTANAIMKLFLDKDGFSYCFENEQTLSLEQLQERLSCMPECKSFVLRVNDGALGHAYIVDIPKGENSCRPAFLYQSDLGEGVTRKLRFEDWMTHKALTPILLDDICNYFSCMSQNKTDLEQIATLFDIDGNVKMLRKENIQYQKHDNFSFQLFEYDTDNIEKNIEIIKSLCS	–	2

Reference: paper PMC2659761 (Journal of molecular biology, 2008)
